Data from paper PMC2661963, “The Active Site of a Carbohydrate Esterase Displays Divergent Catalytic and Noncatalytic Binding Functions” (PLoS Biology, 2009).

Legend:
[1] = biological target: T1, CtCE2 (Acetivibrio thermocellus, UniProt P10477); assay: isothermal titration calorimetry; assay type: binding; conditions: 50 mM HEPES-Na, 25 °C; pH 8.0 with 300 mM NaCl (Methods; Figure 5 legend says pH 7.0); binds across esterase active site
T1 construct: gene celE; C-terminal CE2 esterase module only, residues 482-814 of the full-length enzyme, C-terminal His6 tag, pET22b, E. coli BL21
Excerpt: (§1) isothermal titration calorimetry on CtCE2

[2] = biological target: T1, CtCE2; assay: inhibition of 4-nitrophenyl acetate hydrolysis; assay type: biochemical; conditions: substrate 4-nitrophenyl acetate; noncompetitive; 37 °C
Excerpt: inhibition of 4-nitrophenyl acetate hydrolysis on CtCE2

[3] = biological target: T2, CtCE2 (Acetivibrio thermocellus, UniProt P10477, Y683A); assay: isothermal titration calorimetry; assay type: binding; conditions: 50 mM HEPES-Na, 25 °C; pH 8.0 with 300 mM NaCl (Methods; Figure 5 legend says pH 7.0); binds across esterase active site
T2 construct: gene celE; C-terminal CE2 esterase module only, residues 482-814 of the full-length enzyme, C-terminal His6 tag, pET22b, E. coli BL21
T2 sequence (P10477 482-814 Y683A): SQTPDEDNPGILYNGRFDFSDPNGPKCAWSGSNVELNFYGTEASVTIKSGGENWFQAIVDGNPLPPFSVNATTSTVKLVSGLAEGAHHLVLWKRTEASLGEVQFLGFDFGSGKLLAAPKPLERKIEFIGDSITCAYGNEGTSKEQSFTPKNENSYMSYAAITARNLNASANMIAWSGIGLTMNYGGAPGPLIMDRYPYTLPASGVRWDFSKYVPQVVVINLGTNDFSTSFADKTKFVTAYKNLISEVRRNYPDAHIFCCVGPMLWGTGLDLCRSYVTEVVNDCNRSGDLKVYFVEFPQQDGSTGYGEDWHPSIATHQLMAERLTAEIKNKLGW
Excerpt: as §1

[4] = biological target: T3, CtCE2 (Acetivibrio thermocellus, UniProt P10477, W746A); assay: isothermal titration calorimetry; assay type: binding; conditions: 50 mM HEPES-Na, 25 °C; pH 8.0 with 300 mM NaCl (Methods; Figure 5 legend says pH 7.0); binds across esterase active site
T3 construct: gene celE; C-terminal CE2 esterase module only, residues 482-814 of the full-length enzyme, C-terminal His6 tag, pET22b, E. coli BL21
T3 sequence (P10477 482-814 W746A): as the sequence (P10477 482-814 Y683A) above, with A202Y, W265A counted along it
Excerpt: as §1

[5] = biological target: T4, CtCE2 (Acetivibrio thermocellus, UniProt P10477, S612A); assay: isothermal titration calorimetry; assay type: binding; conditions: 50 mM HEPES-Na, 25 °C; pH 8.0 with 300 mM NaCl (Methods; Figure 5 legend says pH 7.0); binds across esterase active site
T4 construct: gene celE; C-terminal CE2 esterase module only, residues 482-814 of the full-length enzyme, C-terminal His6 tag, pET22b, E. coli BL21
T4 sequence (P10477 482-814 S612A): as the sequence (P10477 482-814 Y683A) above, with S131A, A202Y counted along it
Excerpt: as §1

[6] = biological target: T5, CtCE2 (Acetivibrio thermocellus, UniProt P10477, H791A); assay: isothermal titration calorimetry; assay type: binding; conditions: 50 mM HEPES-Na, 25 °C; pH 8.0 with 300 mM NaCl (Methods; Figure 5 legend says pH 7.0); binds across esterase active site
T5 construct: gene celE; C-terminal CE2 esterase module only, residues 482-814 of the full-length enzyme, C-terminal His6 tag, pET22b, E. coli BL21
T5 sequence (P10477 482-814 H791A): as the sequence (P10477 482-814 Y683A) above, with A202Y, H310A counted along it
Excerpt: as §1

[7] = substrate: CC(=O)Oc1ccc([N+](=O)[O-])cc1; assay: purified protein; assay type: biochemical, Cellvibrio japonicus; conditions: 50 mM sodium phosphate pH 7.0, 1 mg/ml BSA
[8] = substrate: CC(=O)Oc1ccc([N+](=O)[O-])cc1; assay: purified protein; assay type: biochemical, Acetivibrio thermocellus; conditions: 50 mM sodium phosphate pH 7.0, 1 mg/ml BSA

Kd [1] [µM] | Molecule | Km [8] [µM] | kcat [8] | other results
333 | OC[C@H]1O[C@@H](O[C@H]2[C@H](O)[C@@H](O)[C@H](O[C@H]3[C@H](O)[C@@H](O)[C@H](O[C@H]4[C@H](O)[C@@H](O)C(O)O[C@@H]4CO)O[C@@H]3CO)O[C@@H]2CO)[C@H](O)[C@@H](O)[C@@H]1O (stereo partly shown) [cellotetraose] |  |  | 
33 | OC[C@H]1O[C@@H](O[C@H]2[C@H](O)[C@@H](O)[C@H](O[C@H]3[C@H](O)[C@@H](O)[C@H](O[C@H]4[C@H](O)[C@@H](O)[C@H](O[C@H]5[C@H](O)[C@@H](O)[C@H](O[C@H]6[C@H](O)[C@@H](O)C(O)O[C@@H]6CO)O[C@@H]5CO)O[C@@H]4CO)O[C@@H]3CO)O[C@@H]2CO)[C@H](O)[C@@H](O)[C@@H]1O (stereo partly shown) [cellohexaose] |  |  | Ki [2]: 3.1 µM; Kd [3]: 37 µM; Kd [4]: > 1000 µM; Kd [5]: 4.1 µM; Kd [6]: 667 µM
71 | OC[C@H]1O[C@@H](O[C@H]2[C@H](O)[C@@H](O)[C@H](O[C@H]3[C@H](O)[C@@H](O)[C@H](O[C@H]4[C@H](O)[C@@H](O)[C@H](O[C@H]5[C@H](O)[C@@H](O)C(O)O[C@@H]5CO)O[C@@H]4CO)O[C@@H]3CO)O[C@@H]2CO)[C@H](O)[C@@H](O)[C@@H]1O (stereo partly shown) [cellopentaose] |  |  | 
> 1000 | OC[C@H]1O[C@@H](O[C@H]2[C@H](O)[C@@H](O)[C@H](O[C@H]3[C@H](O)[C@@H](O)C(O)O[C@@H]3CO)O[C@@H]2CO)[C@H](O)[C@@H](O)[C@@H]1O (stereo partly shown) [cellotriose] |  |  | 
 | CjCE2A (Cellvibrio japonicus Ueda107) (protein, mature form (signal peptide removed), C-terminal His6 tag, pET22b, E. coli BL21; catalytic triad Ser-160, His-335, Asp-333; Trp-127, Trp-212) NTQSLMSSTHTIAASDPHIQVMGRTHINDDASLTFGYPGVSLSTIVAGSRLTAEMQSSNGNSWIDVIIDNHPPTSIKLDAQQQTVELFHFPNSGEHRVEIIHRSENWHGQVTLKQLTLTGTQFLPAPVLPQRKILVLGDSVTCGEAIDRVAGEDKNTRWWNARESYGMLTAKALDAQVQLVCWGGRGLIRSWNGKTDDANLPDFYQFTLGDTGQAPQWDHHRYQPDLIISAIGTNDFSPGIPDRATYINTYTRFVRTLLDNHPQATIVLTEGAILNGDKKAALVSYIGETRQQLHSNRVFYASSSHHPGDNSDAHPTKDQHAAMARELTPQLRQIMDW |  |  | Km [7]: 339 µM; kcat [7]: 7,717 min-1
 | CjCE2B (Cellvibrio japonicus Ueda107) (protein, mature form (signal peptide removed), C-terminal His6 tag, pET22b, E. coli BL21; model ordered 26-361; Cys-333, Trp-335, Tyr-206) ADSTKPLPLHIGGRVLVESPANQPVSYTYSWPAVYFETAFKGQSLTLKFDDDQNIFRLIVDDKAPVVINKPGKVDYPVESLAPGKHRVRLEKLTETQSTSGRFLGFYTDPSAKPLALPKRKRQIEFIGDSFTVGYGNTSPSRECTDEELFKTTNSQMAFGPLTAKAFDADYQINASSGFGIVRNYNGTSPDKSLLSLYPYTLNNPDQLYHNKHWKPQVIVIGLGTNDFSTALNDNERWKTREALHADYVANYVKFVKQLHSNNARAQFILMNSDQSNGEIAEQVGKVVAQLKGGGLHQVEQIVFKGLDYSGCHWHPSANDDQLLANLLITHLQQKKGIW |  |  | Km [7]: 262 µM; kcat [7]: 49,820 min-1
 | CtCE2 (Acetivibrio thermocellus ATCC 27405; D789A) (protein, C-terminal CE2 esterase module only, residues 482-814 of the full-length enzyme, C-terminal His6 tag, pET22b, E. coli BL21) SQTPDEDNPGILYNGRFDFSDPNGPKCAWSGSNVELNFYGTEASVTIKSGGENWFQAIVDGNPLPPFSVNATTSTVKLVSGLAEGAHHLVLWKRTEASLGEVQFLGFDFGSGKLLAAPKPLERKIEFIGDSITCAYGNEGTSKEQSFTPKNENSYMSYAAITARNLNASANMIAWSGIGLTMNYGGAPGPLIMDRYPYTLPYSGVRWDFSKYVPQVVVINLGTNDFSTSFADKTKFVTAYKNLISEVRRNYPDAHIFCCVGPMLWGTGLDLCRSYVTEVVNDCNRSGDLKVYFVEFPQQDGSTGYGEAWHPSIATHQLMAERLTAEIKNKLGW | 75 | 2,512 min-1 | 
 | CtCE2 (Acetivibrio thermocellus ATCC 27405; D789N) (protein, C-terminal CE2 esterase module only, residues 482-814 of the full-length enzyme, C-terminal His6 tag, pET22b, E. coli BL21) SQTPDEDNPGILYNGRFDFSDPNGPKCAWSGSNVELNFYGTEASVTIKSGGENWFQAIVDGNPLPPFSVNATTSTVKLVSGLAEGAHHLVLWKRTEASLGEVQFLGFDFGSGKLLAAPKPLERKIEFIGDSITCAYGNEGTSKEQSFTPKNENSYMSYAAITARNLNASANMIAWSGIGLTMNYGGAPGPLIMDRYPYTLPYSGVRWDFSKYVPQVVVINLGTNDFSTSFADKTKFVTAYKNLISEVRRNYPDAHIFCCVGPMLWGTGLDLCRSYVTEVVNDCNRSGDLKVYFVEFPQQDGSTGYGENWHPSIATHQLMAERLTAEIKNKLGW | 186 | 2,976 min-1 | 
 | CtCE2 (Acetivibrio thermocellus ATCC 27405) (protein, C-terminal CE2 esterase module only, residues 482-814 of the full-length enzyme, C-terminal His6 tag, pET22b, E. coli BL21) SQTPDEDNPGILYNGRFDFSDPNGPKCAWSGSNVELNFYGTEASVTIKSGGENWFQAIVDGNPLPPFSVNATTSTVKLVSGLAEGAHHLVLWKRTEASLGEVQFLGFDFGSGKLLAAPKPLERKIEFIGDSITCAYGNEGTSKEQSFTPKNENSYMSYAAITARNLNASANMIAWSGIGLTMNYGGAPGPLIMDRYPYTLPYSGVRWDFSKYVPQVVVINLGTNDFSTSFADKTKFVTAYKNLISEVRRNYPDAHIFCCVGPMLWGTGLDLCRSYVTEVVNDCNRSGDLKVYFVEFPQQDGSTGYGEDWHPSIATHQLMAERLTAEIKNKLGW | 165 | 7,032 min-1 | 
